Here are results for two molecules from patent publication WO2010082134A1 (dated 2010).

The target in assay [1] is T1, B. anthracis lethal factor (LF) (Bacillus anthracis, UniProt P15917 34-809).
T1 sequence: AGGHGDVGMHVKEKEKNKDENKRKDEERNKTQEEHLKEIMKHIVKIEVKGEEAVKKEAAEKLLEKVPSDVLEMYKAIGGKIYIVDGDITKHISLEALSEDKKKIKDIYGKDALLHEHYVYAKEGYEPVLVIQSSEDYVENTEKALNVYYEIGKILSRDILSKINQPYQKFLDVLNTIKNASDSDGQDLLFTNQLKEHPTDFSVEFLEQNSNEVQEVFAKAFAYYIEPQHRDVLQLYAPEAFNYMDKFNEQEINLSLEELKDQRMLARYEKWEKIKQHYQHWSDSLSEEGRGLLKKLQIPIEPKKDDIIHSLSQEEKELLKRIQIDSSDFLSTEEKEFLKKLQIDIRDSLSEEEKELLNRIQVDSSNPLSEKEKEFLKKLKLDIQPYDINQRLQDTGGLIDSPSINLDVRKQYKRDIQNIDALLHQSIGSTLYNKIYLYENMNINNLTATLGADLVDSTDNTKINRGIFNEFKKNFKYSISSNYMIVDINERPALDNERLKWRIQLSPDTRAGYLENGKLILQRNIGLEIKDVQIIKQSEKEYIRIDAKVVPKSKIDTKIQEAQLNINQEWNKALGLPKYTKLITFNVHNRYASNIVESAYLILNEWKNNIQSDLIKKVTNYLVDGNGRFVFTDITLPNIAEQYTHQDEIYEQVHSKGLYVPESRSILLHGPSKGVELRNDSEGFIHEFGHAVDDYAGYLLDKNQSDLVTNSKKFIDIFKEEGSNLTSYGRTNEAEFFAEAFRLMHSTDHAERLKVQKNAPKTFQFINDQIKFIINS
Put plainly: hybridoma screening by ELISA for anti-LF antibodies.

Assay [2] has as its target B. anthracis protective antigen (PA) (Bacillus anthracis, UniProt P13423 30-764). Put plainly: hybridoma screening by ELISA for anti-PA antibodies. (ELISA stands for enzyme-linked immunosorbent assay.)

Chain of B. anthracis protective antigen (PA) (P13423 30-764 limits assumed): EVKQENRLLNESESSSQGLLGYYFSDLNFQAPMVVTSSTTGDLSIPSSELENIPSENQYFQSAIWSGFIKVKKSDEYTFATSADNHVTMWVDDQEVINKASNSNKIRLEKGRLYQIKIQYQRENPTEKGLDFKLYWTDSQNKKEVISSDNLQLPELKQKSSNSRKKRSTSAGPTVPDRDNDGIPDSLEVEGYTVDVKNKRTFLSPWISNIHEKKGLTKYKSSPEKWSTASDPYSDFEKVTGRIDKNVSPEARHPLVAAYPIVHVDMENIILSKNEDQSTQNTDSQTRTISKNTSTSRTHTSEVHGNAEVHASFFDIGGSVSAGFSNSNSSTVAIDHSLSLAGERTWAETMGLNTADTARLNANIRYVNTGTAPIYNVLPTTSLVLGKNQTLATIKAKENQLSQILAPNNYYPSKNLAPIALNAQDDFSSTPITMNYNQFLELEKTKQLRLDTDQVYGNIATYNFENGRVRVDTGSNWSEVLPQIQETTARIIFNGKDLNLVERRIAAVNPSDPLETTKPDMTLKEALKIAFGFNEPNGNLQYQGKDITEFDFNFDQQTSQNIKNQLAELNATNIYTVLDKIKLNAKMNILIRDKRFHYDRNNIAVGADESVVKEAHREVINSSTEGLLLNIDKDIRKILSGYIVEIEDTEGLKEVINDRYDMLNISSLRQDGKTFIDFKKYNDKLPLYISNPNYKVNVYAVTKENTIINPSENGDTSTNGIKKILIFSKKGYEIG

B1: human monoclonal antibody IQNLF (antibody, V domains shown)
VH: EVQLLESGGGLVQPGGSLRLSCSGSGFMFSSYAMSWVRQAPGKGLEWVSGISGSGGTTNYADSVKGRFTISRDNSKNTLYMQMNSLRAEDTAVYYCAKDGVYGRLGGSDYWGQGTLVTVSS
VL: EIVLTQSPDFQSVSPKEKVTITCRASQSVGSSLHWYQQKPDQSPKLLIKYASQSFSGVPSRFSGSGSGTDFTLTINSLETEDAATYYCHQSSSLPLTFGGGTKVEIKR
In the case of B1, the binding result in assay [1] is reported as “binds”.

B2: human monoclonal antibody IQNPA (antibody, V domains shown)
VH: QVQLVQSGAEVKKPGASVKVSCKASGYTFTSNAIQWVRQAPGQRLEWVGWINGGDGNTKYSQKFQGRVTISRDISASTAYMELSSLRSEDTAVYYCARHRLQRGGFDPWGQGTLVTVSS
VL: EIVLTQSPGTLSLSPGERATLSCRASQSVSYSSLAWYQQKPGQAPSLLIYGASSRATGIPDRFSGSGSGPDFTLTISRLEPEDFAVYYCQHYGNSPYTFGQGTKLEIKR
For B2, in assay [2], the binding result is on record as “binds”.
